Assay results published in patent publication US20150064204A1 (Amgen, published 2015).
Like-named read-outs stand apart in the source and are kept apart here.

T1: human GITR (Glucocorticoid-induced TNFR-related gene, TNFRSF18) (human, UniProt Q9Y5U5 26-241)
T1 sequence: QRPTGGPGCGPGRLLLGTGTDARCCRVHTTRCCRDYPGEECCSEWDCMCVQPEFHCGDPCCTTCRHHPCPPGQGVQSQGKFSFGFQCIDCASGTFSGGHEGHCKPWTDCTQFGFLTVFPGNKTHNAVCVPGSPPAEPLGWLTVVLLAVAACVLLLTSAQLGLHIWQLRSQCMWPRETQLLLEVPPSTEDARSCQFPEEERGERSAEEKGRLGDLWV

T2: human GITR (human, UniProt Q9Y5U5 26-241)
T2 sequence: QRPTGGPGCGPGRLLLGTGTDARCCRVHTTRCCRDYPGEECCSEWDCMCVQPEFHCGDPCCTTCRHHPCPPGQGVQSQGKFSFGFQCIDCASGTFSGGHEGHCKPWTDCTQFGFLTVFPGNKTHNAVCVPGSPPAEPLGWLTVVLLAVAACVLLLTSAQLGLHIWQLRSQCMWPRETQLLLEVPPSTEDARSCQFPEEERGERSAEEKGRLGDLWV

T3: cynomolgus monkey GITR (cynomolgus monkey, UniProt Q9Y5U5 26-241 (human entry))
T3 construct: also called cyno GITR
T3 chain: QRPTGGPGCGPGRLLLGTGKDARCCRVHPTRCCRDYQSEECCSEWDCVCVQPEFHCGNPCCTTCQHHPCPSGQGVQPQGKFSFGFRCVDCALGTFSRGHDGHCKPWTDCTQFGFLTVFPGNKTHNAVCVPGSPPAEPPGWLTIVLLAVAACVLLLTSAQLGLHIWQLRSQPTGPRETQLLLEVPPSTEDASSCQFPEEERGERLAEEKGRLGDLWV


Legend:
[1] = molecular target: T1, human GITR (Glucocorticoid-induced …); assay: cell-based or functional assay
[2] = molecular target: T1, human GITR (Glucocorticoid-induced …); assay: flow cytometry (MFI), antibody titration on anti-CD3-activated primary human T cells (CD25+CD4+)
Description: Cells were collected and washed and then incubated at 4 C with titrations of the anti-human GITR antibodies or a human IgG1 isotype control antibody. After washing, cells were stained at 4 C with fluorochrome conjugated anti-human CD4 and anti-human CD25 antibodies to identify activated CD4+ effector T cells and with fluorochrome-conjugated anti-huIgG to detect bound anti-human GITR antibodies. The mean fluorescence intensity (MFI) of the anti-human GITR antibodies bound to CD25+CD4+ cells was determined by flow cytometry. The EC50s of the binding curves were calculated using GraphPad Prism® software.

[3] = molecular target: T2, human GITR; assay: cell-based or functional assay
[4] = molecular target: T2, human GITR; assay: cell-based or functional assay; remark: listed apart in the source
[5] = molecular target: T3, cynomolgus monkey GITR; assay: flow cytometry, cyno T cell binding
[6] = molecular target: T2, human GITR; assay: flow cytometry, human T cell binding
[7] = molecular target: T2, human GITR; assay: flow cytometry on activated human T cells
[8] = molecular target: T3, cynomolgus monkey GITR; assay: cyno T cell binding EC50 against human T cell binding EC50

Binder | IFNg Secretion (Fold over CD3) [1] [fold over CD3] | IFNg Secretion EC50 [1] [ng/mL] | EC50 [2] [ng/mL] | Proliferation (Fold over CD3) [3] [fold over CD3] | Proliferation EC50 [3] [ng/mL] | Activation EC50 ng/mL (IFNg secretion) [4] [ng/mL] | Proliferation (Fold over CD3) [4] [fold over CD3] | EC50 [5] [ng/mL] | EC50 [6] [ng/mL] | EC50 [7] [ng/mL] | Cyno:Hu Binding EC50 Ratio [8] [ratio]
5H7 (antibody, human IgG1, kappa, V domains shown, Fully human parental antibody; also called Ab17; SS-10943) VH: QVQLQESGPGLVKPSQTLSLTCTVSGGSISSGGYFWSWIRQHPGKGLEWIGYIYYSGTTYYNPSLKSRVTISIDTSKNHFSLKLSSVTAADTAVYYCARDLFYYDSSGPRGFDPWGQGTLVTVSS VL: EIVLTQSPGTLSLSPGERATLSCRASQTVSSNYLAWYQQKPGQAPRLLIYGSSTRATGIPDRFSGSGSGTDFTLTISRLEPEDFAVYYCQQYDSSPWTFGQGTKVEIKR | 2.9 | 11.3 | 164 |  |  |  |  |  |  |  | 
49E2v1 (antibody, human IgG1, lambda, V domains shown, tied to 49E2v1 by Ab23 / SS-12516; also called Ab23; SS-12516) VH: QVQLVESGGGVVQPGRSLRLSCAASGFTFSSYGMHWVRQAPGKGLEWVAVIWSDGNNKYYEDSVKGRFTISRDSSKNTLFLQMNSLRAEDTAVYYCARDTATPFDYWGQGTLVTVSS VL: QSALTQPASVSGSPGQSITISCTGTSSDVGIYNLVSWYQQHPGKAPKLMIHEVSKRPSGVSNRFSGSKSGNTASLTISGLQAEDEADYYCASYAGISTWVFGGGTKLTVLG | 1.9 | 2.2 | 318 |  |  |  |  |  |  |  | 
45A8v1 (antibody, human IgG1, lambda, V domains shown, tied to 45A8v1 by Ab21 / SS-12515; also called Ab21; SS-12515) VH: QVQLVESGGGVVQPGRSLRLSCAASGFTFSSYGMHWVRQAPGKGLEWVAVIWHDGSNKYYADSVKGRFTISKDNSKNTLYLQMNSLRAEDTAVYYCAREYGGNFDYWGQGTLVTVSS VL: QSALTQPASVSGSPGQSITISCTGTSSDVGTYNLVSWYQQHPGKAPKLMIYEVSKRPSGISNRFSGSKSGNTASLTISGLQAEDEADYYCASYAGYSTWVFGGGTKLTVLR | 1.8 | 0.7 | 102 |  |  |  |  |  |  |  | 
7A10v1 (antibody, human IgG1, kappa, V domains shown, Engineered variant; also called Ab39; SS-13810) VH: QVQLVESGGGVVQPGRSLRLSCAASGFTFSSYGMHWVRQAPGKGLEWMAVIWYVGSNKYYADSVKGRFTISRDNSKNTLYLQMNSLRAEDTAVYYCARGGELGRDYYSGMDVWGQGTTVTVSS VL: DIQMTQSPSSLSASVGDRVTITCRASQGIRNDLGWYQQKPGKAPKRLIYAASSLQSGVPSRFSGSGSGTEFTLTISSLQPEDFATYYCQQHNSYPWTFGQGTKVEIKR |  |  |  | 3 | 3 | 0.32 | 3 | 173 | 27 | 56 | 6.4
41G5v2 (antibody, human IgG1, kappa, V domains shown, Engineered variant; also called Ab56; SS-13809) VH: QVQLVESGGGVVQPGRSLRLSCAASGFTFSSYGMHWVRQAPGKGLEWVAVIWYPGSNKYYAESVKGRFTISRDNSKNTLYLQMNSLRAEDTAVYYCARGGELGRYYYYGMDVWGQGTTVTVSS VL: DIQMTQSPSSLSASVGDRVTVTCRASQGIRNDLGWYQQKPGKAPKRLIYAASSLQSGVPSRFSGSGSGTEFTLTISSLQPEDFATYYCLQHNNYPWTFGQGTKVDIKR |  |  |  | 3.5 | 3 | 0.64 | 3.5 | 153 | 33 | 57 | 4.6
9H6 (antibody, human IgG1, kappa, V domains shown, Fully human parental antibody; also called Ab19; SS-10945) VH: QVQLVESGGGVVQPGRSLRLSCVASGFTFSSYGMHWIRQAPGKGLEWVAVIWYEGSNKYYADSVKGRFTISRDNSKNTLYLQMNSLRAEDTAVYYCARGGRLGKDYYSGMDVWGQGTTVTVSS VL: DIQMTQSPSSLSASVGDRVTITCRASQGIRNDLGWYQQKPGKAPNRLIYATSSLQSGVPSRFSGSGSGTEFTLTISSLQPEDFATYYCLQHNTYPWTFGQGTKVEIKR | 1.9 | 0.5 | 26 |  |  |  |  |  |  |  | 
33C9v2 (antibody, human IgG1, kappa, V domains shown, Engineered variant; also called Ab51; SS-13808) VH: QVQVVESGGGVVQPGRSLRLSCAASGFTFSSYGMHWVRQAPGKGLEWVSVIWYEGSNKYYAESVKGRFTISRDNSKNTLYLQMNSLRAEDTAVYYCARGGLLGYYYYYGMDVWGQGTTVTVSS VL: DIQMTQSPSSLSASVGDRVTITCRASQGIRNDLGWYQQKPGKAPKRLIYDASSLQSGVPSRFSGSGSGTEFTLTISSLQPEDFATYYCLQHHSYPWTFGQGTKVEIKR |  |  |  | 2.9 | 7 | 0.86 | 2.9 | 301 | 35 | 60 | 8.6
9H6v3 (antibody, human IgG1, kappa, V domains shown, Engineered variant; also called Ab46; SS-13806) VH: QVQLVESGGGVVQPGRSLRLSCVASGFTFSSYGMHWIRQAPGKGLEWVAVIWYEGSNKYYAESVKGRFTISRDNSKNTLYLQMNSLRAEDTAVYYCARGGRLGKDYYSGMDVWGQGTTVTVSS VL: DIQMTQSPSSLSASVGDRVTITCRASQGIRNDLGWYQQKPGKAPKRLIYATSSLQSGVPSRFSGSGSGTEFTLTISSLQPEDFATYYCLQHNTYPWTFGQGTKVEIKR |  |  |  | 3.7 | 6 | 0.06 | 3.7 | 184 | 26 | 90 | 7.1

More lines, now with the values ahead:

IFNg Secretion (Fold over CD3) [1] [fold over CD3] | IFNg Secretion EC50 [1] [ng/mL] | EC50 [2] [ng/mL] | Proliferation (Fold over CD3) [3] [fold over CD3] | Proliferation EC50 [3] [ng/mL] | Activation EC50 ng/mL (IFNg secretion) [4] [ng/mL] | Proliferation (Fold over CD3) [4] [fold over CD3] | EC50 [5] [ng/mL] | EC50 [6] [ng/mL] | EC50 [7] [ng/mL] | Cyno:Hu Binding EC50 Ratio [8] [ratio] | Binder
 |  |  | 3.2 | 11 | 1.6 | 3.2 | 619 | 164 | 279 | 3.7 | 5H7v2 (antibody, human IgG1, kappa, V domains shown, Engineered variant; also called Ab26; SS-13807) VH: QVQLQESGPGLVKPSETLSLTCTVSGGSISSGGYFWSWIRQPPGKGLEWIGYIYYSGTTYYNPSLKSRVTISIDTSKNQFSLKLSSVTAADTAVYYCARDLFYYDTSGPRGFDPWGQGTLVTVSS VL: EIVLTQSPGTLSLSPGERATLSCRASQTVSSNYLAWYQQKPGQAPRLLIYGSSTRATGIPDRFSGSGSGTDFTLTISRLEPEDFAVYYCQQYDSSPWTFGQGTKVEIKR
1.6 | 11.4 | 802 |  |  |  |  |  |  |  |  | 44C1v1 (antibody, human IgG1, lambda, V domains shown, tied to 44C1v1 by Ab20 / SS-12514; also called Ab20; SS-12514) VH: QVQLVESGGGVVQPGRSLRLSCAASGFTLSSYGMHWVRQAPGKGLEWVAVIWYDGSNKYYADSVKGRFTISRDNSKNTLYLQMNSLRAEDTAVYYCARRGTVTTPDFDYWGQGTLVTVSS VL: QSALTQPASVSGSPGQSITISCTGTSSDVGTYNLVSWYQQHPGKAPKLMIYEVSKRPSGVSNRFSGSKSGNTASLTISGLQAEDEADYYCASYAGFSTWVFGGGTKLTVLG
0.9 | 79.1 | 145 |  |  |  |  |  |  |  |  | 48A9v1 (antibody, human IgG1, kappa, V domains shown, tied to 48A9v1 by Ab24 / SS-12513; also called Ab24; SS-12513) VH: not shown VL: DIQMTQSPSSLSASVGDRVIITCRASQSISSYLHWYKQKPGKAPKLLIYGASRLQSGVPSRFSGSGSGTDFTLTISSLQPEDFATYYCQQSSSTPLTFGGGTKVEIKR
2 | 0.3 | 48 |  |  |  |  |  |  |  |  | 41E11 (antibody, human IgG1, kappa, V domains shown, Fully human parental antibody; also called Ab6; SS-12417) VH: QVQVVESGGGVVQPGRSLRLSCAASGFTFSSYGMYWVRQAPGKGLEWVAVIWYEGSNKYYADSVRGRFTISRDNSKNTLYLQMNSLRAEDTALYYCARGGQLGKDYYSGMDVWGQGTTVTVSS VL: DIQMTQSPSSLSASVGDRVTITCRASQVIRNDLGWYQQKPGKAPKRLIYAASSLQSGVPSRFSGSGSGTEFTLTISSLQPEDFATYYCLQHNSYPLTFGGGTKVEIKR
2.2 | 0.9 | 30 |  |  |  |  |  |  |  |  | 46E11 (antibody, human IgG1, kappa, V domains shown, Fully human parental antibody; also called Ab11; SS-12421) VH: QVQLVESGGGVVQPGRSLRLSCAASGFTFSSYGMHWVRQAPGKGLEWVAVIWYAGSNKYYADSVKGRFTISRDNSKNTLYLQMNSLRAEDTAVYYCARGDILTGYSLYYGMDVWGQGTTVTVSS VL: DIQMTQSPSSLSASVGDRVTITCRASQGIRNDLGWYQQKPGKAPKRLIYAASSLQSGVPSRFSGSGSGAEFTLTISSLQPEDFATYYCLQHNSYPWTFGQGTKVEIKR
1.3 | 0.5 | 51 |  |  |  |  |  |  |  |  | 49D9v1 (antibody, human IgG1, kappa, V domains shown, tied to 49D9v1 by Ab22 / SS-12562; also called Ab22; SS-12562) VH: QMQLVESGGGVVQPGGSLRLSCAASGFTFSSYGMHWVRQAPGKGLEWVAVIWYAGSNKYYADSVKGRFTISRDNSKNTLYLQMNSLRAEDTAVYYCARGGRLGFYYYYGMDVWGQGTTVTVSS VL: DIQMTQSPSSLSASVGDRVTITCRASQGIRNDLGWYQQKPGKAPKRLIYAASSLQSGVPSRFSGSGSGTEFTLTISSLQPEDFATYYCLQLNSYPWTFGQGTKVEIKR
